Changes are numbered by the printed parent chain.
Experiments:
ZF5 zinc finger 4 mutant = biological target: T1, ZF5 zinc finger 4 mutant (Homo sapiens, UniProt O43829 O43829:1-449, C363S); assay: EMSA; no shift detected; details: tags: untagged and N-terminal 6xMyc versions; label: 32P
T1 sequence: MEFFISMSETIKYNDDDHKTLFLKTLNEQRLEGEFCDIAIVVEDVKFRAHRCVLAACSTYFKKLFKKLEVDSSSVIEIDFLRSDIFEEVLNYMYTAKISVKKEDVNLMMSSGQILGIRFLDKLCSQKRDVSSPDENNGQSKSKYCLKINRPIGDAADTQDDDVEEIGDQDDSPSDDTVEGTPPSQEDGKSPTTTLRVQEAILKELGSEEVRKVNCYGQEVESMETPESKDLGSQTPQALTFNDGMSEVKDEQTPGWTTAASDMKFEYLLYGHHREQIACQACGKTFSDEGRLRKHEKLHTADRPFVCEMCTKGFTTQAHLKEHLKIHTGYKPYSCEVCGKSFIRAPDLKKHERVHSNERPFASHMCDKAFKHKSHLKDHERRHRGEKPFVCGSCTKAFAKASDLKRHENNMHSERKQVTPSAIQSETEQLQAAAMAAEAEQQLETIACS

[1] = biological target: T2, ZF5C (clone A25, C-terminal ZF5 fragment) (Homo sapiens, UniProt O43829 O43829:308-449); assay: EMSA; blocked by wild-type RRS competitor; details: tags: N-terminal 6xMyc; label: 32P
T2 sequence: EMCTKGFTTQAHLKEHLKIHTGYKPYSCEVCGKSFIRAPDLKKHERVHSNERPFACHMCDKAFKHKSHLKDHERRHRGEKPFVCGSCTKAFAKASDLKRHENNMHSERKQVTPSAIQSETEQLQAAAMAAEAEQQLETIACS

Rep78 = biological target: T3, Rep78 (UniProt Q89268 Q89268:1-621); assay: EMSA; blocked by wild-type RRS competitor; details: label: 32P
T3 sequence: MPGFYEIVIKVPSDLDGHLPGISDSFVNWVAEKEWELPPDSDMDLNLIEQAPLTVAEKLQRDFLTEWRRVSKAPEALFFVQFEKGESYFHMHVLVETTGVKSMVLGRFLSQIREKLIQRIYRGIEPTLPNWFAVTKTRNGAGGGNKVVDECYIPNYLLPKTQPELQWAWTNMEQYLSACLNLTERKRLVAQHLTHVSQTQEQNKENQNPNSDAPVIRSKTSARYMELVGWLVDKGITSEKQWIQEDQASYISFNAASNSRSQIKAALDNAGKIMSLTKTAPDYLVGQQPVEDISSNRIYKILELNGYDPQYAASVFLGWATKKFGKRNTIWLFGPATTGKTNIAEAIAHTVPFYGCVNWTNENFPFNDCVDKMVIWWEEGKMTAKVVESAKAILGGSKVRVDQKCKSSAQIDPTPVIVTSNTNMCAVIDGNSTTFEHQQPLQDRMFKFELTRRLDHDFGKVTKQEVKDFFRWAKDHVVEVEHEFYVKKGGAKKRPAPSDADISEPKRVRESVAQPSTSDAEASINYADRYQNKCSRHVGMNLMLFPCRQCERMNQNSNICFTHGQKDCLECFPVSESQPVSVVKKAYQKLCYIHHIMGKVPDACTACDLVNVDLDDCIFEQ

ZF5 = biological target: T4, ZF5 (Homo sapiens, UniProt O43829 O43829:1-449); assay: EMSA; competed by excess unlabeled wild-type RRS; details: tags: untagged and N-terminal 6xMyc versions; label: 32P
T4 sequence: T1 sequence with S363C

B1: RRS probe (core of 32-bp oligonucleotide) (dsDNA)
DNA 1: CTGCGCGCTCGCTCGCTCAC
DNA 2: GTGAGCGAGCGAGCGCGCAG
binding result (ZF5 zinc finger 4 mutant): no binding | binding result [1]: binds | binding result (Rep78): binds | binding result (ZF5): binds

Source: patent US20020182595, “Method of identifying cellular regulators of adeno-associated virus (AAV)” (published 2002)
